Experimental data from patent US20250122278A1, “ANTI-INTERLEUKIN-9 ANTIBODY AND USE THEREOF” (GUANGDONG KEGUANDA PHARMACEUTICAL TECHNOLOGY CO., LTD., priority 2022, published 2025).

Target: T1, IL-9 (Homo sapiens, UniProt P15248)
T1 construct: pcDNA3.4-IL9 (19-144)-His (P15248); His (C); made in house; host or cells: 293F cells (transient transfection)
Test: ELISA binding of humanized antibodies to the target antigen
Settings: ELISA of culture supernatant of 293F cells, control chimeric antibody CA1
Experimental: ELISA was conducted according to a standard protocol to determine the affinity of a purified antibody for the IL-9-His recombinant protein. In short, the IL-9-His recombinant protein was diluted with sterile PBS and added at 100 μL/well to a 96-well plate. The plate was incubated at 4° C. overnight and then blocked with a blocking buffer. 100 μL of a purified anti-IL-9 antibody serially diluted was added to the plate, and the plate was incubated for 1 h at room temperature. PBS was added to a control well. The plate was washed with PBST 3 times. Then 100 μL of horseradish peroxidase (HRP)-labeled anti-mouse IgG H&L (BIODRAGON, CAT #BF03001) was added, and the plate was incubated for 1 h at room temperature. The plate was washed with PBST 3 times. Then a chromogenic reaction was conducted with a 3,3′,5,5′-tetramethylbenzidine (TMB) chromogenic solution at room temperature. An OD value in each well was read by a microplate reader. Data was processed with PRISM GraphPad, and curves were plotted. The EC50 value for each candidate antibody was calculated.
Humanized antibody expression vectors carrying a designed heavy-chain or light-chain sequence were transiently transfected into 293F cells in pairs, and then a resulting culture supernatant was collected. According to a standard protocol (with reference to part 5.1 in Example 1), with a human-mouse chimeric antibody CA1 constructed with VH and VL of the original murine antibody as a control, the binding of a humanized antibody to a target antigen was detected by ELISA. The method for ELISA was the same as described in 5.1 of Example 1. […] In the follow-up experiments, the four combinations of VH1−VL2, VH1−VL4, VH2−VL4, and VH3−VL4 (hu.CA1 to hu.CA4) were taken as examples for antibody purification and function testing. […]

T1 sequence (P15248 19-144): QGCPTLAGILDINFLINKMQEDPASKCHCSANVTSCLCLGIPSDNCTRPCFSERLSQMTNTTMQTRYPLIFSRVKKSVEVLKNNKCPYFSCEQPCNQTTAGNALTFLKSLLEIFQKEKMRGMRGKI

| Molecule | binding to IL-9 |
| --- | --- |
| VH3+VL4: humanized antibody, VH SEQ ID NO: 28, VL SEQ ID NO: 33 (antibody, V domains shown) VH: EVQLVQSGAEVMKPGASVKVSCKATGYTFTGYWIEWVRLAPGQGLEWMGEILPGSGSTNYNQKLQGRVTFTADTSTNTAYMELRSLRSDDTAIYYCARRTYYYGIPEDYWGQGTLVTVSS VL: DIVMTQSPKFLSASVGDRVTITCKASQNVGTNVAWHQQKPGQSPKPLIYSASYRYSGVPSRFTGSGSGTDFTLTISNLQPEDFAEYFCQQYNSYPLTFGAGTKLEIK | bind to IL-9 with high affinity |
| VH2+VL3: humanized antibody, VH SEQ ID NO: 27, VL SEQ ID NO: 32 (antibody, V domains shown) VH: EVQLVQSGAEVMKPGASVKVSCKATGYTFTGYWIEWVRLAPGQGLEWMGEILPGSGSTNYNQKFQGRVTFTADTSTNTAYMELSSLRSEDTAIYYCARRTYYYGIPEDYWGQGTLVTVSS VL: DIVMTQSPKFVSTSVGDRVTITCRASQNVGTNVAWHQQKPGQSPKPLIYSASYRYSGVPSRFTGSGSGTDFTLTISNLQPEDFAEYFCQQYNSYPLTFGAGTKLEIK | bind to IL-9 with high affinity |
| VH2+VL1: humanized antibody, VH SEQ ID NO: 27, VL SEQ ID NO: 30 (antibody, V domains shown) VH: EVQLVQSGAEVMKPGASVKVSCKATGYTFTGYWIEWVRLAPGQGLEWMGEILPGSGSTNYNQKFQGRVTFTADTSTNTAYMELSSLRSEDTAIYYCARRTYYYGIPEDYWGQGTLVTVSS VL: DIVMTQSQKFLSTSVGDRVTITCRASQNVGTNVAWHQQKPGQSPKPLIYSASYRYSGVPSRFTGSGSGTDFTLTISNLQPEDFAEYFCQQYNSYPLTFGAGTKLEIK | bind to IL-9 with high affinity |
| VH1+VL3: humanized antibody, VH SEQ ID NO: 26, VL SEQ ID NO: 32 (antibody, V domains shown) VH: EVQLKQSGAEVMKPGASVKVSCKATGYTFTGYWIEWVRLAPGHGLEWMGEILPGSGSTNYNQKFQGRVTFTADTSINTAYMELSRLRSDDTAIYYCARRTYYYGIPEDYWGQGTLVTVSS VL: DIVMTQSPKFVSTSVGDRVTITCRASQNVGTNVAWHQQKPGQSPKPLIYSASYRYSGVPSRFTGSGSGTDFTLTISNLQPEDFAEYFCQQYNSYPLTFGAGTKLEIK | bind to IL-9 with high affinity |
| VH2+VL4: humanized antibody, VH SEQ ID NO: 27, VL SEQ ID NO: 33 (antibody, V domains shown) VH: EVQLVQSGAEVMKPGASVKVSCKATGYTFTGYWIEWVRLAPGQGLEWMGEILPGSGSTNYNQKFQGRVTFTADTSTNTAYMELSSLRSEDTAIYYCARRTYYYGIPEDYWGQGTLVTVSS VL: DIVMTQSPKFLSASVGDRVTITCKASQNVGTNVAWHQQKPGQSPKPLIYSASYRYSGVPSRFTGSGSGTDFTLTISNLQPEDFAEYFCQQYNSYPLTFGAGTKLEIK | bind to IL-9 with high affinity |
| VH4+VL1: humanized antibody, VH SEQ ID NO: 29, VL SEQ ID NO: 30 (antibody, V domains shown) VH: EVQLKQSGAEVMKPGASVKLSCKATGYTFTGYWIEWVKLAPGHGLEWIGEILPGSGSTNYNEEFQGRVTFTADTSSNTAYMELSRLRSDDTAIYYCARRTYYYGIPEDYWGQGTLVTVSS VL: DIVMTQSQKFLSTSVGDRVTITCRASQNVGTNVAWHQQKPGQSPKPLIYSASYRYSGVPSRFTGSGSGTDFTLTISNLQPEDFAEYFCQQYNSYPLTFGAGTKLEIK | bind to IL-9 with high affinity |
| VH4+VL3: humanized antibody, VH SEQ ID NO: 29, VL SEQ ID NO: 32 (antibody, V domains shown) VH: EVQLKQSGAEVMKPGASVKLSCKATGYTFTGYWIEWVKLAPGHGLEWIGEILPGSGSTNYNEEFQGRVTFTADTSSNTAYMELSRLRSDDTAIYYCARRTYYYGIPEDYWGQGTLVTVSS VL: DIVMTQSPKFVSTSVGDRVTITCRASQNVGTNVAWHQQKPGQSPKPLIYSASYRYSGVPSRFTGSGSGTDFTLTISNLQPEDFAEYFCQQYNSYPLTFGAGTKLEIK | bind to IL-9 with high affinity |
| VH3+VL3: humanized antibody, VH SEQ ID NO: 28, VL SEQ ID NO: 32 (antibody, V domains shown) VH: EVQLVQSGAEVMKPGASVKVSCKATGYTFTGYWIEWVRLAPGQGLEWMGEILPGSGSTNYNQKLQGRVTFTADTSTNTAYMELRSLRSDDTAIYYCARRTYYYGIPEDYWGQGTLVTVSS VL: DIVMTQSPKFVSTSVGDRVTITCRASQNVGTNVAWHQQKPGQSPKPLIYSASYRYSGVPSRFTGSGSGTDFTLTISNLQPEDFAEYFCQQYNSYPLTFGAGTKLEIK | bind to IL-9 with high affinity |
| VH3+VL1: humanized antibody, VH SEQ ID NO: 28, VL SEQ ID NO: 30 (antibody, V domains shown) VH: EVQLVQSGAEVMKPGASVKVSCKATGYTFTGYWIEWVRLAPGQGLEWMGEILPGSGSTNYNQKLQGRVTFTADTSTNTAYMELRSLRSDDTAIYYCARRTYYYGIPEDYWGQGTLVTVSS VL: DIVMTQSQKFLSTSVGDRVTITCRASQNVGTNVAWHQQKPGQSPKPLIYSASYRYSGVPSRFTGSGSGTDFTLTISNLQPEDFAEYFCQQYNSYPLTFGAGTKLEIK | bind to IL-9 with high affinity |
| VH1+VL1: humanized antibody, VH SEQ ID NO: 26, VL SEQ ID NO: 30 (antibody, V domains shown) VH: EVQLKQSGAEVMKPGASVKVSCKATGYTFTGYWIEWVRLAPGHGLEWMGEILPGSGSTNYNQKFQGRVTFTADTSINTAYMELSRLRSDDTAIYYCARRTYYYGIPEDYWGQGTLVTVSS VL: DIVMTQSQKFLSTSVGDRVTITCRASQNVGTNVAWHQQKPGQSPKPLIYSASYRYSGVPSRFTGSGSGTDFTLTISNLQPEDFAEYFCQQYNSYPLTFGAGTKLEIK | bind to IL-9 with high affinity |
